According to US20170320924A1 (UNIVERSITY OF YAMANASHI, published 2017):

Molecular target: T1, human CLEC-2 (C-type lectin-like receptor 2) (human, UniProt Q9P126 1-229)
T1 construct: whole, on cells; also called T-REx human CLEC-2 expressing 293 cells
Assay: column 'CLEC-2 binding' of the summary Table 10

T1 sequence (Q9P126 whole entry): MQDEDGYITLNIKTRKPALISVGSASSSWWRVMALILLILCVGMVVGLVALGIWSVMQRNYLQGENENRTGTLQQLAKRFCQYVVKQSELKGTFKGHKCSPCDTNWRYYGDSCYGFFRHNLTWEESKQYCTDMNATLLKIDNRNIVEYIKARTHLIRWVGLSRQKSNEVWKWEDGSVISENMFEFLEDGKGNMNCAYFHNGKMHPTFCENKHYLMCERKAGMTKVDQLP

B1: mutant rhodocytin derived from cell No. 3 (R28A and K31A) (ligand)
alpha: GLEDCDFGWSPYDQHCYQAFNEQKTWDEAEKFCRAQENGAHLASIESNGEADFVSWLISQKDELADEDYVWIGLRAQNKEQQCSSEWSDGSSVSYENLIDLHTKKCGALEKLTGFRKWVNYYCEQMHAFVCKLLPY
beta: DCPSGWSSYEGHCYKPFNEPKNWADAEAFCALQPKHSHLVSFQSAEEADFVVKLTRPRLKANLVWMGLSNIWHGCNWQWSDGARLNYKDWQEQSECLAFRGVHTEWLNMDCSSTCSFVCKFKA
modifications: α and β subunits are disulfide-linked. BN-PAGE shows a heterotrimer; each distinct subunit is given once.
notes: also called R28A, K31A
binding result: binds
